Laboratory results: US20190300616A1

Legend:
[1] = target: recombinant human IL13Rα2hFc chimera (human) (UniProt Q14627); assay: plate-bound ELISA on rhIL13Rα2hFc
[2] = target: recombinant human IL13Rα2hFc chimera (human) (UniProt Q14627); assay: SPR, Biacore 3000; mAb immobilized, rhIL13Rα2 injected; 1:1 model
[3] = target: human wild-type IL13Rα2 expressed on the cell surface (human) (UniProt Q14627); assay: flow cytometry (APC-A), N10 glioma cells pre-incubated with 10x excess rhIL13, then mIgG
[4] = target: human wild-type IL13Rα2 expressed on the cell surface (human) (UniProt Q14627); assay: flow cytometry (APC-A), N10 glioma cells
[5] = target: Pngase F-treated rhIL13Rα2hFc (human) (UniProt Q14627); assay: plate-bound ELISA, Pngase F-treated rhIL13Rα2hFc
Pngase F-treated rhIL13Rα2hFc (human), sequence (Q14627 27-343 limits assumed): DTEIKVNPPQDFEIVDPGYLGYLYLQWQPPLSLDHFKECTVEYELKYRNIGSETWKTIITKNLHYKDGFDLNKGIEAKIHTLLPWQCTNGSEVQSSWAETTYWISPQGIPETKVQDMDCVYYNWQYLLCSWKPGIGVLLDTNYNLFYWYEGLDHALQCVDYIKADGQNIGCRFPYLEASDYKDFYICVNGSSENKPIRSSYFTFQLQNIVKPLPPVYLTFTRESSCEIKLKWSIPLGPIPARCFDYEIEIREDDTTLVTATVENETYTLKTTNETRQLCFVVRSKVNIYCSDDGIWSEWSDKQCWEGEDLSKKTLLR

recombinant human IL13Rα2hFc chimera (human), sequence (Q14627 27-343 limits assumed, stated change not applied): as the sequence (Q14627 27-343 limits assumed) above
human wild-type IL13Rα2 expressed on the cell surface (human), sequence (Q14627 27-380): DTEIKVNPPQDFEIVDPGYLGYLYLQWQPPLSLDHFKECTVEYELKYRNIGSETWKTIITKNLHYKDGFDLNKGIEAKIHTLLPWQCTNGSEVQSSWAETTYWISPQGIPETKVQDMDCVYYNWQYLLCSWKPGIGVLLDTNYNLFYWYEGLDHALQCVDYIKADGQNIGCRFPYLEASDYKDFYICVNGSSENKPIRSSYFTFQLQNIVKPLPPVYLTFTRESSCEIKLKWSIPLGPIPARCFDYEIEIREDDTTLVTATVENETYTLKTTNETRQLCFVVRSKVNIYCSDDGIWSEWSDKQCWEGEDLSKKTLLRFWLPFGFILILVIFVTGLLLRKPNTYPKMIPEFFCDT

| EC50 (read off the curve) [1] [µg/mL] | Kd [2] [nM] | koff [2] [s⁻¹] | kon [2] [M⁻¹ s⁻¹] | % positive cells [3] [%] | % positive cells [4] [%] | percent decrease of binding against untreated protein [5] [%] | Substance |
| --- | --- | --- | --- | --- | --- | --- | --- |
| 0.2 | 46.1 | 0.00499 | 108000 |  |  |  | monoclonal antibody to IL13Rα2 (clone B-D13) |
|  |  |  |  | 0.9 | 1.9 |  | mIgG (antibody) |
|  | 104 | 0.00231 | 22300 |  |  | 80 | mAb to IL13Rα2 (clone 83807) (antibody) |
